How the values were obtained:
[1] = biological target: T1, Anaplastic Lymphoma kinase Artificial Substrate peptide-B (ALAStide-B)
T1 chain: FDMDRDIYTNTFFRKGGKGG

[2] = biological target: T2, Anaplastic Lymphoma kinase Artificial Substrate peptide-A (ALAStide-A)
T2 chain: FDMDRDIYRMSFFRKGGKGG

[3] = biological target: T3, YFF peptide
T3 chain: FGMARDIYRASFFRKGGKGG

B1: Lyn (protein)
chain: MGCIKSKGKDSLSDDGVDLKTQPVRNTERTIYVRDPTSNKQQRPVPESQLLPGQRFQTKDPEEQGDIVVALYPYDGIHPDDLSFKKGEKMKVLEEHGEWWKAKSLLTKKEGFIPSNYVAKLNTLETEEWFFKDITRKDAERQLLAPGNSAGAFLIRESETLKGSFSLSVRDFDPVHGDVIKHYKIRSLDNGGYYISPRITFPCISDMIKHYQKQADGLCRRLEKACISPKPQKPWDKDAWEIPRESIKLVKRLGAGQFGEVWMGYYNNSTKVAVKTLKPGTMSVQAFLEEANLMKTLQHDKLVRLYAVVTREEPIYIITEYMAKGSLLDFLKSDEGGKVLLPKLIDFSAQIAEGMAYIERKNYIHRDLRAANVLVSESLMCKIADFGLARVIEDNEYTAREGAKFPIKWTAPEAINFGCFTIKSDVWSFGILLYEIVTYGKIPYPGRTNADVMTALSQGYRMPRVENCPDELYDIMKMCWKEKAEERPTFDYLQSVLDDFYTATEGQYQQQP
phosphorylation by kinase in vitro, ELISA [1]: The ALK-specific biosensors are not phosphorylated by other representative cellular kinases | phosphorylation by kinase in vitro, ELISA [2]: The ALK-specific biosensors are not phosphorylated by other representative cellular kinases | phosphorylation by kinase in vitro, ELISA [3]: shows the lack of affinity of these the two ALK-specific biosensors and YFF peptide by Lyn, Abl, and Csk

B2: Csk (protein)
chain: MSAIQAAWPSGTECIAKYNFHGTAEQDLPFCKGDVLTIVAVTKDPNWYKAKNKVGREGIIPANYVQKREGVKAGTKLSLMPWFHGKITREQAERLLYPPETGLFLVRESTNYPGDYTLCVSCDGKVEHYRIMYHASKLSIDEEVYFENLMQLVEHYTSDADGLCTRLIKPKVMEGTVAAQDEFYRSGWALNMKELKLLQTIGKGEFGDVMLGDYRGNKVAVKCIKNDATAQAFLAEASVMTQLRHSNLVQLLGVIVEEKGGLYIVTEYMAKGSLVDYLRSRGRSVLGGDCLLKFSLDVCEAMEYLEGNNFVHRDLAARNVLVSEDNVAKVSDFGLTKEASSTQDTGKLPVKWTAPEALREKKFSTKSDVWSFGILLWEIYSFGRVPYPRIPLKDVVPRVEKGYKMDAPDGCPPAVYEVMKNCWHLDAAMRPSFLQLREQLEHIKTHELHL
phosphorylation by kinase in vitro, ELISA [1]: The ALK-specific biosensors are not phosphorylated by other representative cellular kinases | phosphorylation by kinase in vitro, ELISA [2]: The ALK-specific biosensors are not phosphorylated by other representative cellular kinases | phosphorylation by kinase in vitro, ELISA [3]: shows the lack of affinity of these the two ALK-specific biosensors and YFF peptide by Lyn, Abl, and Csk

B3: Anaplastic lymphoma kinase (ALK) (protein)
chain: VYRRKHQELQAMQMELQSPEYKLSKLRTSTIMTDYNPNYCFAGKTSSISDLKEVPRKNITLIRGLGHGAFGEVYEGQVSGMPNDPSPLQVAVKTLPEVCSEQDELDFLMEALIISKFNHQNIVRCIGVSLQSLPRFILLELMAGGDLKSFLRETRPRPSQPSSLAMLDLLHVARDIACGCQYLEENHFIHRDIAARNCLLTCPGPGRVAKIGDFGMARDIYRASYYRKGGCAMLPVKWMPPEAFMEGIFTSKTDTWSFGVLLWEIFSLGYMPYPSKSNQEVLEFVTSGGRMDPPKNCPGPVYRIMTQCWQHQPEDRPNFAIILERIEYCTQDPDVINTALPIEYGPLVEEEEKVPVRPKDPEGVPPLLVSQQAKREEERSPAAPPPLPTTSSGKAAKKPTAAEISVRVPRGPAVEGGHVNMAFSQSNPPSELHKVHGSRNKPTSLWNPTYGSWFTEKPTKKNNPIAKKEPHDRGNLGLEGSCTVPPNVATGRLPGASLLLEPSSLTANMKEVPLFRLRHFPCGNVNYGYQQQGLPLEAATAPGAGHYEDTILKSKNSMNQPGP
phosphorylation by ALK kinase in vitro, ELISA [1]: ALAStide-B has comparable phosphorylation level with YFF peptide | phosphorylation by ALK kinase in vitro, ELISA [2]: ALAStide-A has higher phosphorylation activity than YFF and ALAStide-B | phosphorylation by ALK kinase in vitro, ELISA [3]: YFF peptide is used as a reference to compare the phosphorylation activity of ALAStide-A and ALAStide-B

— patent US20170183710
